Experiments:
HepG2 cells = assay: Oil-Red-O staining of neutral lipid; assay type: cell-based, human; conditions: 50 ng/mL, 24 hours, versus untreated
Description: Cells were stained with Oil-Red-0 to examine the amount of neutral lipid accumulation in the cells as described by Ferre et al. (Am. J. Physiol Gastrointest. Liver Physiol. 296:G553-G562). Briefly, dishes were washed with cold phosphate-buffered saline and fixed in 10% neutral formalin. After 2 changes of propylene glycol, Oil-Red-0 was added with agitation for 7 minutes, followed by washing in 85% propylene glycol. The dishes were then rinsed in distilled water and counterstained with hematoxylin. For each dish, 3 images were photographed, and a representative image is shown.
To determine if the deleterious effects of human resistin extend not only to increased secretion of apoB-containing lipoproteins by human hepatocytes, but also to increased hepatocyte lipid content, as the two processes frequently occur together in such conditions as obesity, insulin resistance and type 2 diabetes mellitus. Oil-Red-O/hematoxylin staining of HepG2 cells either untreated, treated with 100 μM oleate for 24 hours as a positive control, or treated with 50 ng/mL human resistin for 24 hours was performed. […] The increased cell neutral lipid content with resistin treatment was similar in magnitude to that observed with 100 μM oleate treatment.

[1] = tested on: mouse primary hepatocytes; assay: cellular apoB100 protein expression in primary mouse hepatocytes; assay type: cell-based; conditions: 50 ng/mL, 24 hours
Description: Primary Cells: Fresh wild-type rat and mouse primary heptaocytes were supplied by CellzDirect (Invitrogen, NC) in a 6-well collagen coated plate. Upon arrival, the storage media was removed and incubation media (Williams E Medium, phenol red free, with incubation supplement pack, Gibco, NC) was added according to manufactures' instructions. The cells were incubated at 37° C. with 5% CO2 for 16 hours prior to human resistin (50 ng/mL) treatment for 24 hours. Cryopreserved plateable human hepatocytes, metabolism qualified from multiple normal human donors, were supplied by CellzDirect (Invitrogen, NC). Upon arrival, the cells (4-8 million in 1 mL), according to the manufacturer's instruction, were added to 48 mL warmed thawing medium (CHRM® Medium, Invitrogen, NC) and centrifuged at 100×g for 10 min at room temperature. The pellet was re-suspended in 4 mL plating medium (Williams E Medium, phenol red free, with maintenance supplement pack and 10% FBS, Gibco, NC). The cells were stained by Trypan Blue (Sigma, Canada) and counted by a haemocytometer, followed by seeding 1×10^6 cells/well in a 6-well collagen coated plate (CellzDirect, Invitrogen, NC). The cells were incubated at 37° C. with 5% CO2 for 4 hours to allow the cells to adhere. The plating media was replaced and cell incubated for 16 hours prior to human resistin treatment for 24 hours. […]

[2] = tested on: primary mouse hepatocytes from PCSK9 knockout mice; assay: LDL receptor protein in PCSK9 knockout mouse hepatocytes; assay type: cell-based; conditions: 50 ng/mL, 24 hours
Description: (§1) Animal ethics approval was received for the mouse protocols to follow. Primary mouse hepatocytes from PCSK9 knockout mice (C57Bl/6 background) or their wildtype littermates were isolated by perfusing the liver via the hepatic portal vein with a 5 mM EGTA in Leffert's Buffer (10 mM Hepes; 3 mM KCl, 0.13 M NaCl, 1 mM NaH2PO4, 10 mM D-glucose) followed by a 0.3 mg/ml collagenase in 0.0279% CaCl2. Cells were then filtered through a 70 uM nylon strainer and centrifuged at 760 rpm for 5 min. The cells were then passed through a CHRM gradient (Invitrogen, NC). Viability of cells ranged from 80 to 95%. […] Mouse LDL receptor and PCSK9 protein in cell lysates were measured via immunoblotting, as described above, using the following primary antibodies: mouse LDL receptor (abcam, MA), mouse PCSK9 (abcam, MA) and mouse GAPDH (Cell Signaling, MA). […]
(§2) To then more directly quantify the role of PCSK9 in the resistin mediated reduction in hepatocyte LDL receptor levels, hepatocytes isolated and cultured from wild-type mice were treated with resistin, and compared to resistin-treated hepatocytes from PCSK9 knockout mice.

[3] = tested on: primary human hepatocytes; assay: LDL receptor protein in primary human hepatocytes; assay type: cell-based; conditions: 50 ng/mL, 24 hours
Description: Cryopreserved plateable human hepatocytes, metabolism qualified from multiple normal human donors, were obtained from CellzDirect (Invitrogen, NC). The cells were seeded at 1×10^6 cells/well in a 6-well collagen coated plate according to the manufacturer's instructions (CellzDirect, Invitrogen, NC). The cells were incubated at 37° C. with 5% CO2 for 4 hours to allow the cells to adhere. The plating media was replaced and the cells incubated for 16 hours prior to human resistin 50 ng/mL treatment for 24 hours.
To determine if the above findings in immortalized HepG2 cells are relevant to humans, primary human hepatocytes […] (Invitrogen) were treated with human resistin at the optimum 50 ng/mL dose for 24 hours. […] While the magnitude of the inhibitory effect of human resistin on LDL receptor protein expression was not as large as with HepG2 cells, this was expected as primary hepatocytes are not as metabolically active as cultured hepatoma HepG2 hepatocytes.

[4] = tested on: primary mouse hepatocytes from wildtype littermates; assay: LDL receptor and PCSK9 protein in wild-type mouse hepatocytes; assay type: cell-based; conditions: wild-type mice hepatocytes, 50 ng/mL, 24 hours
Description: as §1, §2

- PCSK9 levels [4]: increased PCSK9 levels significantly
B1: human resistin: recombinant lyophilized purified human resistin (Calbiochem); cysteine-rich cytokine, single 12 kDa band (protein)
chain: KTLCSMEEAINERIQEVAGSLIFRAISSIGLECQSVTSRGDLATCPRGFAVTGCTCGSACGSWDVRAETTCHCQCAGMDWTGARCCRVQP
- hepatocyte neutral lipid content (HepG2 cells): clear increase
- increase in cellular apoB protein expression versus untreated control cells [1]: 40-50%
- decline in LDL receptor expression compared to untreated hepatocytes [2]: 15%
- LDL receptor protein versus untreated control cells [3]: significantly reduced
- decrease in LDL receptor protein levels compared with untreated hepatocytes [4]: 40%

From patent US20130252987A1, “METHOD OF REGULATING PLASMA LIPOPROTEINS” (MCMASTER UNIVERSITY, priority 2010, published 2013)
